Data reported in article PMC3252277.
Each block holds one substance with its values, some of them ahead of it.

Experiments:
[1] = target: fibrillin-1 N-terminal half (Homo sapiens) (UniProt P35555); conditions: cited from earlier work
[2] = target: C-terminal recombinant ADAMTS-10 polypeptide (human) (UniProt Q9H324); assay: SPR; C-terminal end of ADAMTS-10 coupled to a chip; soluble C-terminal ADAMTSL-3 at 80-0 nM; 25°C, HBS-EP buffer
[3] = target: C-terminal recombinant ADAMTS-10 polypeptide (human) (UniProt Q9H324); assay: SPR; data not shown; N-terminal fibrillin-1 polypeptide with the C-terminal end of ADAMTS-10

Chain of UniProt Q9H324 (Q9H324 26-1103): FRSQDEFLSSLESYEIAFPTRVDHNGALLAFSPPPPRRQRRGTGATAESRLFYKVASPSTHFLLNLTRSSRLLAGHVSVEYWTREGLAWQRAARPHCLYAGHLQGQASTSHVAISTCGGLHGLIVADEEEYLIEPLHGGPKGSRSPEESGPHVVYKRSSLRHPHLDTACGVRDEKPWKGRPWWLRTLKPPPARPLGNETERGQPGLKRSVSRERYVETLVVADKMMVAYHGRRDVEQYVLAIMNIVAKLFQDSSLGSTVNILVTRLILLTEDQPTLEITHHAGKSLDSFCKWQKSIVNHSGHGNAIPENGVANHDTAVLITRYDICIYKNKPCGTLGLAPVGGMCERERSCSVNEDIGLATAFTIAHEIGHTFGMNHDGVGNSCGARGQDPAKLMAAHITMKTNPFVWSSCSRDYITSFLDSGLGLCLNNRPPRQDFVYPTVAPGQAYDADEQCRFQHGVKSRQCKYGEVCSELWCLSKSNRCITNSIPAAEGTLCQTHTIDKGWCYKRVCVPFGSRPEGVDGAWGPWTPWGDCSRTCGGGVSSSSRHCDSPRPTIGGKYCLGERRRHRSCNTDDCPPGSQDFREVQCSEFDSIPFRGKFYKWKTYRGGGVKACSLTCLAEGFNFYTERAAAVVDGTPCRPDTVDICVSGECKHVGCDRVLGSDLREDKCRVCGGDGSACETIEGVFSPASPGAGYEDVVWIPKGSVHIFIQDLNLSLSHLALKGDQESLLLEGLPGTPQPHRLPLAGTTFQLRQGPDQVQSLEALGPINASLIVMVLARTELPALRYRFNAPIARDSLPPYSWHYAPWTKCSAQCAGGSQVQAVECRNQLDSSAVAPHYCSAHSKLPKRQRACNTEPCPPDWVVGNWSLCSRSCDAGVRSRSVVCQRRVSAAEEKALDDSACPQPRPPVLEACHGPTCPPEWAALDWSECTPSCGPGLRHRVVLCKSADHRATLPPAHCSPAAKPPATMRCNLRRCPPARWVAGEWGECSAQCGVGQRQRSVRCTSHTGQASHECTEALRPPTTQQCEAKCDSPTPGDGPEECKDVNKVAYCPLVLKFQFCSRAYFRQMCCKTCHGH
Chain of UniProt P35555 (P35555 45-1527): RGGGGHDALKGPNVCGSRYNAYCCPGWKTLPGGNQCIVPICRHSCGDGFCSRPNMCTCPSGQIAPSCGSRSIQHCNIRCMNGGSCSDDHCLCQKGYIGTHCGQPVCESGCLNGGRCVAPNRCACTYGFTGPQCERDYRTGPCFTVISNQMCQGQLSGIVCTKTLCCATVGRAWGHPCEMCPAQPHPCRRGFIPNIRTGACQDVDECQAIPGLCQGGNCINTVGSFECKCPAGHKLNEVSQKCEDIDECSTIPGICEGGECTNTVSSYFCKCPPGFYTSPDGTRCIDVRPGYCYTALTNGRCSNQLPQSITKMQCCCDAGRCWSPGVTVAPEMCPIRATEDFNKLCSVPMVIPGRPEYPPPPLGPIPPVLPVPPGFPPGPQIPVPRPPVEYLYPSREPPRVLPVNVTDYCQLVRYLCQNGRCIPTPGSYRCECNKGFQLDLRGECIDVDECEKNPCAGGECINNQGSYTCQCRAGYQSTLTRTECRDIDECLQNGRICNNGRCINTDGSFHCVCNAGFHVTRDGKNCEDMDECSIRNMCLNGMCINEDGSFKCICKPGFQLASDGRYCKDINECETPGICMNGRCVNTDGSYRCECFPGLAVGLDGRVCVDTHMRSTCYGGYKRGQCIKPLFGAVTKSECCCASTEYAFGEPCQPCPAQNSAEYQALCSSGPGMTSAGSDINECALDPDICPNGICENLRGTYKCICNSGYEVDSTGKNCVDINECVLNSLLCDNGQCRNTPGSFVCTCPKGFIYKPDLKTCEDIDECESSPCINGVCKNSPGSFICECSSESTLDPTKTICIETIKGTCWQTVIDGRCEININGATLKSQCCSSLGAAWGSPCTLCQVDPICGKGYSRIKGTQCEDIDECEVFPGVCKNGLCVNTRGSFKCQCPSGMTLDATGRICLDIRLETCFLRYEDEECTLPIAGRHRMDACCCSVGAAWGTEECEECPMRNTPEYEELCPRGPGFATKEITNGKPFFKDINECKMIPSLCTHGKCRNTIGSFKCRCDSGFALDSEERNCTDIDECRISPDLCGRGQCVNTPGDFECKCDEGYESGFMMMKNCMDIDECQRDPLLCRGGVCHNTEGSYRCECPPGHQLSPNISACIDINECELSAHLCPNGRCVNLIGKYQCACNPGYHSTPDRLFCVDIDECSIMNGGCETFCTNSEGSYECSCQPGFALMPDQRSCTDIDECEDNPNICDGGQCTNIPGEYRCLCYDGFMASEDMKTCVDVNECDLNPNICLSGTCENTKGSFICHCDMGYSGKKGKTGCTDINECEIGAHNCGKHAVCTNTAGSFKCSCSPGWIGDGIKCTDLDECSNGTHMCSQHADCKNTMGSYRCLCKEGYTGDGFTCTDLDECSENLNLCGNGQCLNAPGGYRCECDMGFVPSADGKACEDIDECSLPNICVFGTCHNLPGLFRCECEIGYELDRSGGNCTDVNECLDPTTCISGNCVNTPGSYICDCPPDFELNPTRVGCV

Substance: ADAMTSL-6 (from UniProt Q6ZMP0)
Kd [1]: 80 nM

Kd [2]: 2 nM
Substance: C-terminal ADAMTSL-3 polypeptide (domain or fragment)

Kd [3]: 450 nM
Substance: rF90, recombinant N-terminal half of wildtype fibrillin-1 (from UniProt P35555 25-2871) (domain or fragment)
